Measured values taken from the supplement of paper PMC10126150.
± gives the standard deviation of the averaged measurements.

Test system: ATP
Assay: switch fluorescence ratio, 500 uM ATP over buffer (Cy3 cluster intensity, sum of 5 cycles each) (fold (ratio)); higher = stronger signal-on switching upon ATP binding; sequences stand for … in TCGTCGGCAGCGTCAGATGTGTATAAGAGACAGTTTTTTTTTTTTTTTTTTTTTTTTT…TC
Conditions: aptamer strand: ATP DNA aptamer (quencher-CACCTGGGGGAGTATTGCGGAGGAAGG + anchor), 100 nM annealed; ATP concentration: 500 uM
Summary of the method: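 Exposure to 500 uM ATP lasted 15 min at 22 °C before imaging, and a selection-buffer image was taken beforehand, for Cy3-labelled switching-strand clusters on a modified Illumina MiSeq flow-cell annealed to 100 nM quencher-labelled ATP aptamer. Five buffer/ATP cycles were run with NaOH stripping and re-annealing between them. The fluorescence ratio per cluster is summed target-cycle over summed buffer-cycle Cy3 intensity, averaged per switch-domain sequence. Clusters outside 100-1000 RFU were excluded.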

Row | Sequence | switch fluorescence ratio
1 | ACAATGAAGA | 1.01 ± 0.039
2 | ACAATGGATG | 0.994 ± 0.041
3 | ACAATGGGTA | 1.03 ± 0.024
4 | ACAATTAAGC | 1.04 ± 0.028
5 | ACAATTGCGT | 1.05 ± 0.024
6 | ACAATTGGTC | 1.02 ± 0.034
7 | ACACACGACG | 1.29 ± 0.013
8 | ACACCAGGGG | 4.18 ± 0.57
9 | ACACCCGCGC | 1.45 ± 0.064
10 | ACACCTCATA | 1.1 ± 0.039
11 | ACACGATTGG | 0.991 ± 0.014
12 | ACACGCAAAA | 1.571 ± 0.0081
13 | ACACGGGCCT | 1.03 ± 0.062
14 | ACACGGGGGA | 1.01 ± 0.024
15 | ACACGGTCTA | 1.01 ± 0.04
16 | ACACGTCTGG | 1.01 ± 0.029
17 | ACACTAGGGC | 1.04 ± 0.02
18 | ACACTAGTGT | 0.985 ± 0.032
19 | ACACTATAAT | 1.09 ± 0.014
20 | ACACTATTAT | 1.07 ± 0.033
21 | ACACTGCTCG | 1.05 ± 0.011
22 | ACACTTTCG | 1.018 ± 0.0011
23 | ACAGAATAGG | 1.018 ± 0.0027

Row | Sequence | switch fluorescence ratio
24 | ACAGACAGCG | 1.06 ± 0.022
25 | ACAGACTATA | 1.094 ± 0.0097
26 | ACAGACTTGT | 1.01 ± 0.037
27 | ACAGAGGAGC | 1.062 ± 0.006
28 | ACAGAGGGAT | 1.02 ± 0.018
29 | ACAGCAGCGG | 1.05 ± 0.021
30 | ACAGCCACGG | 1.18 ± 0.038
31 | ACAGCTGGGG | 1.0159 ± 0.00055
32 | ACAGGAAGAT | 1.03 ± 0.035
33 | ACAGGAGCTT | 1.05 ± 0.04
34 | ACAGGCGCTT | 1.01 ± 0.013
35 | ACAGGCGGCT | 1.1 ± 0.061
36 | ACAGGGAGTT | 0.9911 ± 0.0078
37 | ACAGGGGGGC | 1.06 ± 0.03
38 | ACAGGGTGTC | 1.05 ± 0.031
39 | ACAGGTGGAA | 1.235 ± 0.01
40 | ACAGGTTGCG | 0.9971 ± 0.0082
41 | ACAGTAATGG | 1.05 ± 0.041
42 | ACAGTACACA | 1.3 ± 0.061
43 | ACAGTATGGT | 1.02 ± 0.029
44 | ACAGTCGACT | 1.032 ± 0.0074
45 | ACAGTCGGTG | 1.028 ± 0.0066
46 | ACAGTCTGAC | 1.0082 ± 0.00053

Row | Sequence | switch fluorescence ratio
47 | ACAGTGGCAT | 0.997 ± 0.034
48 | ACAGTTAAGT | 1.04 ± 0.039
49 | ACAGTTTTCT | 1.01 ± 0.024
50 | ACATAAGAGG | 1.05 ± 0.013
51 | ACATACAGGG | 1.31 ± 0.038
52 | ACATACGGGG | 1.3 ± 0.1
53 | ACATACTTTA | 1.32 ± 0.015
54 | ACATAGAGAT | 1.02 ± 0.039
55 | ACATAGATTT | 1.03 ± 0.029
56 | ACATAGTTGG | 0.966 ± 0.024
57 | ACATATATGG | 0.9752 ± 0.0051
58 | ACATATTTGA | 1.01 ± 0.03
59 | ACATCAGAAG | 1.02 ± 0.039
60 | ACATCCAATT | 0.99 ± 0.019
61 | ACATCTAGGC | 1.069 ± 0.0093
62 | ACATCTCGTT | 0.96 ± 0.041
63 | ACATGATGTT | 1 ± 0.028
64 | ACATGGCATC | 1.05 ± 0.046
65 | ACATGGGCTA | 1.09 ± 0.11
66 | ACATGGGGAG | 1.02 ± 0.016
67 | ACATTAATTC | 0.99573 ± 0.00079
68 | ACATTATCCA | 1.01 ± 0.0068
69 | ACATTATTTC | 1.05 ± 0.033

Row | Sequence | switch fluorescence ratio
70 | ACATTCACGT | 1.52 ± 0.033
71 | ACATTCAGTA | 0.991 ± 0.014
72 | ACATTGACGC | 1.08 ± 0.021
73 | ACATTGGCGG | 0.993 ± 0.066
74 | ACATTGGTAT | 1 ± 0.011
75 | ACATTGGTGG | 0.993 ± 0.026
76 | ACATTTGGGG | 1.03 ± 0.066
77 | ACATTTTACT | 1.12 ± 0.014
78 | ACCAAAGGCT | 1.03 ± 0.04
79 | ACCAAATTAT | 1.03 ± 0.058
80 | ACCAAGCCAT | 1.09 ± 0.077
81 | ACCAAGGGGT | 1.02 ± 0.054
82 | ACCAATGTTC | 1.03 ± 0.033
83 | ACCAATTGGT | 1.02 ± 0.012
84 | ACCAATTTGC | 1.05 ± 0.043
85 | ACCACAAAGG | 1.48 ± 0.61
86 | ACCACCTTAC | 2.32 ± 0.29
87 | ACCACGGTTG | 1.07 ± 0.023
88 | ACCAGGCTTG | 1.02 ± 0.016
89 | ACCAGTGATG | 1.01 ± 0.039
90 | ACCATCAAAT | 0.9853 ± 0.0068
91 | ACCATCGTAG | 1.0191 ± 0.00047
92 | ACCATGACGG | 1.044 ± 0.0092

Row | Sequence | switch fluorescence ratio
93 | ACCATGCGTT | 0.992 ± 0.03
94 | ACCATGGGCT | 0.974 ± 0.038
95 | ACCATGTACT | 1.07 ± 0.016
96 | ACCATTGGGG | 0.993 ± 0.031
97 | ACCATTTTTG | 0.985 ± 0.057
98 | ACCCAAACAA | 1.06 ± 0.028
99 | ACCCCGGTCT | 1.04 ± 0.011
100 | ACCCGAAGGC | 1.08 ± 0.043
101 | ACCCGAGCAC | 2.13 ± 0.054
102 | ACCCGCCTTT | 1.086 ± 0.0021
103 | ACCCGGGCAG | 1.049 ± 0.0047
104 | ACCCGGGGTC | 1 ± 0.053
105 | ACCCGTTGCC | 1.03 ± 0.057
106 | ACCCTCGGGG | 1.0015 ± 0.00096
107 | ACCCTCTGGG | 1.01 ± 0.021
108 | ACCCTGGACC | 1.066 ± 0.0086
109 | ACCCTGTGTA | 1 ± 0.021
110 | ACCCTTCCAA | 1.72 ± 0.072
111 | ACCCTTTTAC | 1.13 ± 0.052
112 | ACCGAATGTT | 0.999 ± 0.022
113 | ACCGAGGCTT | 1.45 ± 0.051
114 | ACCGCTCGAA | 1.15 ± 0.056
115 | ACCGCTGTGG | 1.06 ± 0.019

Row | Sequence | switch fluorescence ratio
116 | ACCGGCCCGG | 0.9848 ± 0.0085
117 | ACCGGCGGTT | 1.01 ± 0.032
118 | ACCGGCGTTT | 1.05 ± 0.051
119 | ACCGGGGGCT | 1.034 ± 0.0052
120 | ACCGGGGGGT | 1.37 ± 0.22
121 | ACCGGGGTTA | 0.986 ± 0.033
122 | ACCGGTGTTC | 1.021 ± 0.0069
123 | ACCGTCTGTA | 1.014 ± 0.0058
124 | ACCGTGGCGT | 1.0212 ± 0.001
125 | ACCGTTTTTT | 1 ± 0.017
126 | ACCTAACACG | 1.19 ± 0.037
127 | ACCTAGTGTG | 1.135 ± 0.0024
128 | ACCTATGGGA | 1 ± 0.028
129 | ACCTCAGCTT | 1.48 ± 0.021
130 | ACCTGACTTG | 1.06 ± 0.014
131 | ACCTGAGGGG | 1.024 ± 0.0035
132 | ACCTGGGTGG | 1.03 ± 0.036
133 | ACCTTATATA | 1.056 ± 0.0094
134 | ACCTTCGTTG | 1.22 ± 0.003
135 | ACCTTGGGGA | 1.25 ± 0.4
136 | ACCTTTTAAG | 1.23 ± 0.3
137 | ACCTTTTAGG | 0.965 ± 0.036
138 | ACGAAAGTCA | 1.052 ± 0.01

Row | Sequence | switch fluorescence ratio
139 | ACGAACAGTT | 1.15 ± 0.047
140 | ACGAAGATGC | 1.24 ± 0.15
141 | ACGAAGGCTA | 1.14 ± 0.028
142 | ACGAAGGGGG | 1.14 ± 0.24
143 | ACGAAGGTCG | 1.03 ± 0.059
144 | ACGACGTTGA | 1.07 ± 0.032
145 | ACGACTGCGT | 1.0213 ± 0.00018
146 | ACGACTTTTT | 1.03 ± 0.063
147 | ACGAGAAGTT | 1.1 ± 0.073
148 | ACGAGCCTAG | 1.33 ± 0.058
149 | ACGAGCGTGG | 1 ± 0.011
150 | ACGAGGATGC | 1.09 ± 0.024
151 | ACGAGGGGGG | 1.02 ± 0.02
152 | ACGAGGTTCT | 1.016 ± 0.003
153 | ACGAGTCTGC | 0.96588 ± 0.00086
154 | ACGAGTGGGC | 1 ± 0.063
155 | ACGAGTGTCG | 0.964 ± 0.04
156 | ACGATAGAGG | 1.14 ± 0.015
157 | ACGATCAAGG | 1.13 ± 0.024
